Source: patent US20260201355A1 (GENKORE, published 2026)

Biological target: the molecule itself
Test: size exclusion chromatography (Superdex 200) of the CWCas12f-gRNA ribonucleoprotein complex
Protocol: Using the method for production of ribonucleoprotein particles in Example 1.7, the CWCas12f protein was incubated with the gRNA to produce a ribonucleoprotein complex. The ribonucleoprotein complex was analyzed by size exclusion chromatography using a Superdex 200 column.

B1: CWCas12f protein (enzyme)
chain: MGEKSSRRRRNGKSGAWTAAITSCVGGKMAKNTITKTLKLRIVRPYNSAEVEKIVADEKNNREKIALEKNKDKVKEACSKHLKVAAYCTTQVERNACLFCKARKLDDKFYQKLRGQFPDAVFWQEISEIFRQLQKQAAEIYNQSLIELYYEIFIKGKGIANASSVEHYLSDVCYTRAAELFKNAAIASGLRSKIKSNFRLKELKNMKSGLPTTKSDNFPIPLVKQKGGQYTGFEISNHNSDFIIKIPFGRWQVKKEIDKYRPWEKFDFEQVQKSPKPISLLLSTQRRKRNKGWSKDEGTEAEIKKVMNGDYQTSYIEVKRGSKIGEKSAWMLNLSIDVPKIDKGVDPSIIGGIDVGVKSPLVCAINNAFSRYSISDNDLFHFNKKMFARRRILLKKNRHKRAGHGAKNKLKPITILTEKSERFRKKLIERWACEIADFFIKNKVGTVQMENLESMKRKEDSYFNIRLRGFWPYAEMQNKIEFKLKQYGIEIRKVAPNNTSKTCSKCGHLNNYFNFEYRKKNKFPHFKCEKCNFKENADYNAALNISNPKLKSTKEEP
notes: Recombinant protein purified from E. coli and incubated with engineered sgRNA to form the ribonucleoprotein before size exclusion chromatography; The complex also contains the sgRNA, which is not a protein; also called TnpB; wild-type CWCas12f
Q: Does B1 bind?
A: binds
